Series [1] has as its target Las17 polyproline motif (Saccharomyces cerevisiae) (UniProt Q12446). The note with it: cited from earlier work.
Series [2] deals with the molecule itself. Nature of the series: FCS molecular brightness (counts per particle per second); living yeast cells, cytoplasm; brightness of GFP-tagged particles compared with 3myeGFP and Ent2-3myeGFP (monomers) or with wild-type Ede1; average of all particles.
For series [3], the target named is T1, Ede1 (Ede1-3myeGFP / Ede1-3mCherry) (S. cerevisiae, UniProt P34216 1-1381).
T1 construct: Ede1, S. cerevisiae, homolog of mammalian Eps15; expressed from its own locus; also called wild-type Ede1; full-length Ede1; source: S. cerevisiae, chromosomally tagged at the endogenous locus, in living cells; not shown: 3myeGFP, C-terminal, kept; 3mCherry, C-terminal, kept
T1 sequence (looked up): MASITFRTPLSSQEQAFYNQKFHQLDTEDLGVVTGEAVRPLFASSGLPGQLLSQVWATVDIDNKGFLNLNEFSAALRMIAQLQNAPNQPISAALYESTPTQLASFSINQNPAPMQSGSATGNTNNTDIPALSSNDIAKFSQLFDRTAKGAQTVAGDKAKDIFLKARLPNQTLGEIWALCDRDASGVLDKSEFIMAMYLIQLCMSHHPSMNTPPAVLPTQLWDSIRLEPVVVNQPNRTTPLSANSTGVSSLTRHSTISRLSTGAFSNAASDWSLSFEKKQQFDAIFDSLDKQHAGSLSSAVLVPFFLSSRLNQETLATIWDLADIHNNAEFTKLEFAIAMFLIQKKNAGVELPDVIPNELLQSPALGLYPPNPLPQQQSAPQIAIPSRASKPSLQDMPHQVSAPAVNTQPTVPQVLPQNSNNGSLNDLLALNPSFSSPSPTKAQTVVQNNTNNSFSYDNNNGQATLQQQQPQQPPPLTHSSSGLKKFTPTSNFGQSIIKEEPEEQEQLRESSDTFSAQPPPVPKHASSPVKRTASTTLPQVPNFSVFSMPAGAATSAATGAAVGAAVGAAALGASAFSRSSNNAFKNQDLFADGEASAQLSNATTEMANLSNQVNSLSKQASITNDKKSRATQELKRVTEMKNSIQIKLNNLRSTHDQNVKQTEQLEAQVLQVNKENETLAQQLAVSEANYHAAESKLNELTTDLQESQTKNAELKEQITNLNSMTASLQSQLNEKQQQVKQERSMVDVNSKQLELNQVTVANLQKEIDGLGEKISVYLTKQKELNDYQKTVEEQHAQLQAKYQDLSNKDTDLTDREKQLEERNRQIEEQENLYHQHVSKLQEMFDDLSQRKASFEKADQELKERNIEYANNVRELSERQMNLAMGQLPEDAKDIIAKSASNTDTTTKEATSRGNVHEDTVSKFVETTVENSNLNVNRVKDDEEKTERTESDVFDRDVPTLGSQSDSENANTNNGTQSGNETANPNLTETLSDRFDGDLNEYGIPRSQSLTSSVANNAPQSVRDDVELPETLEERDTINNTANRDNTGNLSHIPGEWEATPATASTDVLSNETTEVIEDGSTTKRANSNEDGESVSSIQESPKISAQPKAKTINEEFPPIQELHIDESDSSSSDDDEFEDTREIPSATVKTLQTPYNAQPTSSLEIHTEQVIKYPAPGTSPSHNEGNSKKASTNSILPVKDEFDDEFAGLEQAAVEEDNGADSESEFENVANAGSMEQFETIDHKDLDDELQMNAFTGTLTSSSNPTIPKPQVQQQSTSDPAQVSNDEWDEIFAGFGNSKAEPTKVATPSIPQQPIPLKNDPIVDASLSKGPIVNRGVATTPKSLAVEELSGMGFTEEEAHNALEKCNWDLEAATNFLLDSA
The series can be described thus: fluorescence cross-correlation spectroscopy (FCCS); living yeast cells, observation volume in the cytoplasm; one protein tagged with (3)myeGFP/eGFP and the other with 3mCherry in the same strain; apparent (effective) KD; interactions up to ~1 μM detectable. The note with it: partners not purified.

Another series deals with T2, Apl3 (S. cerevisiae, UniProt P38065 1-1025).
T2 construct: Apl3, subunit of the AP2 complex, S. cerevisiae; also called Apl3-3myeGFP; Apl3-3mCherry; source: chromosomally tagged at the endogenous locus, in the cytoplasm of living S. cerevisiae cells
T2 sequence (looked up): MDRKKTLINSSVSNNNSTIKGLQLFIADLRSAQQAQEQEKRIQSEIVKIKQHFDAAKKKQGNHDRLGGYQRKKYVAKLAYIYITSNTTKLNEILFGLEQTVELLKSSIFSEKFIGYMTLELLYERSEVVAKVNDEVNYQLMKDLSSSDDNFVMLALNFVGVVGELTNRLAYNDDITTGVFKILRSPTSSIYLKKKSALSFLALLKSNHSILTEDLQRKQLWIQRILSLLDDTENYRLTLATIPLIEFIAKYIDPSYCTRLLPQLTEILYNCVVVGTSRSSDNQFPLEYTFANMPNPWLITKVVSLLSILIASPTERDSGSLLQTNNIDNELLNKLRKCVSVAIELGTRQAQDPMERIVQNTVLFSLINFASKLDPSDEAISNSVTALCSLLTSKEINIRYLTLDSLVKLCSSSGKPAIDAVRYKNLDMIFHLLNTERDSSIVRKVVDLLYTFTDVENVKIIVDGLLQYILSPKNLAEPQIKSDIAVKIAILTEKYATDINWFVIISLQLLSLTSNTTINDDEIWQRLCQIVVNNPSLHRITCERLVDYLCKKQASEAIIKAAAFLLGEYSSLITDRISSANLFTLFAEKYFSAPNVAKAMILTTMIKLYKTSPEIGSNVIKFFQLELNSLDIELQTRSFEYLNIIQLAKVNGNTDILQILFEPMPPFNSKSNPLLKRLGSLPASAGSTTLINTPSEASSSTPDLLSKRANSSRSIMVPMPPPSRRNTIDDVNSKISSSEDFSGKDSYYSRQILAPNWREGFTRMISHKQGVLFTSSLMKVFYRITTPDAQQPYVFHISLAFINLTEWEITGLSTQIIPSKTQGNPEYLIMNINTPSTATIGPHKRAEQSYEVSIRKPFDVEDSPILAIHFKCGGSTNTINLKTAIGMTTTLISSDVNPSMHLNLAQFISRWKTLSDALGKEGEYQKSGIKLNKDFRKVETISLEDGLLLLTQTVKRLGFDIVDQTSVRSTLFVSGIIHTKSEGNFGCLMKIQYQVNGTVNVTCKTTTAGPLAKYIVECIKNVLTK
Nature of the series: fluorescence cross-correlation spectroscopy (FCCS); in the cytoplasm of living yeast cells; first-named protein green (3myeGFP or 1myeGFP; eGFP for Don1), second red (3mCherry); self-interaction in diploid strains with one allele of each colour; apparent or effective KD (Kdeff) from single-cell measurements; only Kdeff values < 1000 nM are shown; values for self-interactions are upper limits. The note with it: partners not purified.

Sla1 SH3 domains (from UniProt P32790): in series [1], the Kd was 56 nM.

B1: Sla2 (natural protein, S. cerevisiae, UniProt P33338 1-968, looked up)
chain: MSRIDSDLQKALKKACSVEETAPKRKHVRACIVYTWDHQSSKAVFTTLKTLPLANDEVQLFKMLIVLHKIIQEGHPSALAEAIRDRDWIRSLGRVHSGGSSYSKLIREYVRYLVLKLDFHAHHRGFNNGTFEYEEYVSLVSVSDPDEGYETILDLMSLQDSLDEFSQIIFASIQSERRNTECKISALIPLIAESYGIYKFITSMLRAMHRQLNDAEGDAALQPLKERYELQHARLFEFYADCSSVKYLTTLVTIPKLPVDAPDVFLINDVDESKEIKFKKREPSVTPARTPARTPTPTPPVVAEPAISPRPVSQRTTSTPTGYLQTMPTGATTGMMIPTATGAANAIFPQATAQMQPDFWANQQAQFANEQNRLEQERVQQLQQQQAQQELFQQQLQKAQQDMMNMQLQQQNQHQNDLIALTNQYEKDQALLQQYDQRVQQLESEITTMDSTASKQLANKDEQLTALQDQLDVWERKYESLAKLYSQLRQEHLNLLPRFKKLQLKVNSAQESIQKKEQLEHKLKQKDLQMAELVKDRDRARLELERSINNAEADSAAATAAAETMTQDKMNPILDAILESGINTIQESVYNLDSPLSWSGPLTPPTFLLSLLESTSENATEFATSFNNLIVDGLAHGDQTEVIHCVSDFSTSMATLVTNSKAYAVTTLPQEQSDQILTLVKRCAREAQYFFEDLMSENLNQVGDEEKTDIVINANVDMQEKLQELSLAIEPLLNIQSVKSNKETNPHSELVATADKIVKSSEHLRVDVPKPLLSLALMIIDAVVALVKAAIQCQNEIATTTSIPLNQFYLKNSRWTEGLISAAKAVAGATNVLITTASKLITSEDNENTSPEQFIVASKEVAASTIQLVAASRVKTSIHSKAQDKLEHCSKDVTDACRSLGNHVMGMIEDDHSTSQQQQPLDFTSEHTLKTAEMEQQVEILKLEQSLSNARKRLGEIRRHAYYNQDDD
notes: Sla2, S. cerevisiae; Each copy carries one of the two tags; also called Sla2-3myeGFP; source: S. cerevisiae, chromosomally tagged at the endogenous locus, in living cells; not shown: 3myeGFP, C-terminal, kept; 3mCherry, C-terminal, kept
B1: the “molecular brightness per particle relative to 3myeGFP” value in series [2] came to 2 fold. In series [3], the Kd is 590 nM.

B2: Apl1 (natural protein, S. cerevisiae, UniProt P27351 1-700, looked up)
chain: MSDQKVFARYKANEIVTDLQHFGVKKFKSNITRRKNALRKIIANLVLGNYGEMSVLFSELLKFWQIEDDLEVKRICHEYIRVIGALKPQQAREALPFIMDDFKSRDEKLQIMALRTLVLVPVKELSDQAFDCIISLVNHKSPPEQVTRTAIYALLDLDEIDHERVLGLSSILHDIVKAQSSSPEVIVAALHTLYSIHEKNANMEPFRIPLELAFDMLELLPELNEWNKATVLEVLTTSVVPQHYLDTHEMIELALPYLQQVNTYVVLNSLKFIMYLLNYVDVIKETLAEKLSNSVIALLDKPPELQFLVLRNVILLLLSRESSLLRLDISYFFIEYNDPIYIKDTKLECLYLLANKETLPRILEELEQYATDIDIQMSRKSVRAIGNLAVKLDEDSVHDCVAVLLDLLEFGVDYVVQEIISVFRNILRKYPNNFKANVTELVKHTEVVQEPESKNAMIWIITQYSDVIPNYLELFRVFSSNMFSETLEVQFSILNSAIKFFIRSPTKETEELCMDLLKGCIDHENNPDLRDKTLMYWRLLSLTKTSRISNAITFESLKSVLDGELPLIEMNTKLDPTVLEELELNIGTIVSIYLKPVSHIFRLNKTKLLPQSPILNPNKDLLPVVGNSFPPTGANRDRQNSESQSSTKSRKTAMMDDYDKPAEKINQLKGKRKSSSNNPSKLSRKPSTLLRKLSMKRPFS
notes: Apl1, subunit of the AP2 complex, S. cerevisiae; also called Apl1-1myeGFP; Apl1-3mCherry; source: chromosomally tagged at the endogenous locus, in the cytoplasm of living S. cerevisiae cells
Regarding B2, the Kd with Apl3 came out at 37 nM.

B3: Syp1 (natural protein, S. cerevisiae, UniProt P25623 1-870, looked up)
chain: MTEQRTKYADSILTTKSPYEATETIRIRLSQVKLLNKDFYLLFKELANLKRNYAQQLRKIIAENEDITKILNAQMIESNVLTPQEMSAFRFNSLGELRNVWDTVIEELKSDLKSSTEYYNTLDQQVVRELKESVENNTSWRESKDLHSKLSKNAASIEHYSKNNENSSHLEEARRQWDQQSPYLFELFETIDYNRLDTLKNCMLRFQTSFSDYLLNTTKECETVMTKFLAFEPQSEIDRFAKDASQYNFQLSSSSKEVVPNNASPASATGARPVSVSNGAANTEREKKSPQKDKRKSAFGNIGHRLASASSSLTHNDLMNNEFSDSTNNSSLKSKKSSHTLRSKVGSIFGRNKTKNKRQQQSSSNSHIQASITETPNNSSTRVSSTATSSIYQKQRRPTYSSSKSNNWTPGEASDTPPLPPHATPKNVDAPVTADTPPAQTFTPSEVPPSTPQQSSPPTAKEPDSSNLPKTVPISISQPPLQPQSKTKPLPVEPASPSISLPTATVDNQPSGQVDSRPLHIRAPALPPSRKQNFIHNRDSQLYDSLPNHGSGATPTSSSLSSIPQERPVSTLSSQITGELRELNPQATGSSTSLVGQSLFQHSSLDTSQFGLNASIAEVLNASFKDGMLQNSQLIGEIALNYLPNSVMNSPLPIGINLRINNGAKFEKVILNQAFIERVAPEEFKVNPSFIDSRTLGAIKYSIKEPIAPIVIHPVWRFESHQASVVLTVKMSPSLPDEISQIVIEDLVVFVNIDGANATSALSKPQGSFSKEKKRITWRFKEPVVLTRNGEGQRLIARFITDGLAHESAKGVITKFTISETDNVALPHSGAGSGITLTCQELDENNPFGGEWLDVNTKRTLTTGNYHGLA
notes: Syp1, S. cerevisiae endocytic adaptor; Each copy carries one of the two tags; also called Syp1-3myeGFP; source: S. cerevisiae, chromosomally tagged at the endogenous locus, in living cells; not shown: 3myeGFP, C-terminal, kept; 3mCherry, C-terminal, kept
As for B3, the Kd in series [3] came out at 227 nM.

(Values after paper PMC4299599, “Quantification of cytosolic interactions identifies Ede1 oligomers as key organizers of endocytosis” (Molecular Systems Biology, 2014).)
